Laboratory results published in paper PMC3286832.

Target: G9a or GLP catalytic SET domains
Test: ITC

- Kd: 4 to 6 µM
Substance: mDnmt3a(39–50)K44me0 peptide
